The record followed here is patent publication US20140322161A1, “ANTI-IL-6 VACCINE COMPOSITION” (PEPTINOV SAS, priority 2011, published 2014).

Bridges are numbered along the chain shown (N, C = ends). BDB = bisdiazonium-benzidine, coupling agent to KLH

The target in test [1] is T1, hIL-6 (Homo sapiens, UniProt P05231). The experiment in a line: Human IL-6 neutralization test on HEK293 cells (hIL-6 receptor, SEAP reporter) with purified IgGs from immunized rabbits. It is filed as cell-based. Particulars: purified IgGs from rabbits immunized with 100 μg of the peptide. How it is done: New Zealand rabbits free from specific pathogenic organisms (n=1 per peptide) were immunized with 100 μg of peptides hP1, hP2, hP3, hP4 and hP6 derived from human IL-6 by five immunizations with CFA/IFA on D0, D14, D28, D56 and J70. The neutralizing ability of the purified IgGs, derived from the serum of each rabbit, was tested in a human IL-6 neutralization test. This test is carried out on HEK293 cells (Human Embryonic Kidney cells) transfected with the gene encoding the human IL-6 receptor and the secreted embryonic alkaline phosphatase (SEAP) reporter gene (Supplier: Invivogen). The latter is then secreted in a dose-dependent manner in response to the human IL-6.
T1 sequence (P05231 30-212): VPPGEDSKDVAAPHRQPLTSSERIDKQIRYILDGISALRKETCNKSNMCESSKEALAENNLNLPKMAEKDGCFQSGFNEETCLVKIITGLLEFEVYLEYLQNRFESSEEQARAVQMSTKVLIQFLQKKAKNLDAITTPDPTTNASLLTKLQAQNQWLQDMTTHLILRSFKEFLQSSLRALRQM
Plating (D0): seed a flat-bottom 96-well plate, treated for cell culture with 50,000 cells per well in 100 μL of neutralization medium. (DMEM 4.5 g/L glucose, 10% v/v FCS, 2 mM L-Glutamine, 100 U/mL Penicillin/Streptomycin, 100 μg/mL of Normocin).
In parallel a so-called “pre-incubation” plate is prepared with the desired concentration of human IL-6, rabbit antibodies and commercial anti-hIL-6 antibodies used as a positive control, all in a final volume of 200 μL of neutralization medium.
The pre-incubation plate is left at 37° C. for 2 hours. 100 μL per well is then transferred to the corresponding wells of the plate containing the cells, then the latter is incubated with 5% CO2 at 37° C. for 24 hours.
Development (D1): Fill a flat-bottom 96-well plate with 180 μL per well of QUANTI-Blue (InVivoGen, CA, USA). Add 20 μL of supernatant from the plate treated with IL-6. Incubate with 5% CO2 at 37° C. for 3 hours. Determine the quantity of secreted alkaline phosphatase using a spectrophotometer set at 620 nm.

Test [2] deals with T1, hIL-6. The experiment in a line: ELISA of sera from Cynomolgus monkeys immunized with hP2 for anti hIL-6 antibodies. The test is classed as in vivo, Cynomolgus monkey. How it is done: Four Cynomolgus monkeys were immunized intra-muscularly at day 0 with 150 μg of the cyclized hP2 peptide derived from hIL-6 previously described coupled to the protein carrier KLH, and then emulsified with the ISA51 adjuvant (Seppic).
Boosts were performed at d15, d30, d45 with an additional boost at d76. Blood samples were collected every two weeks until the end of the experiment (d120). These sera were tested in ELISA to evaluate the production of anti hIL-6 antibodies. A control group of four monkeys immunized with KLH only was used.
In general terms: In an ELISA, binding on a coated surface is turned into a signal by an enzyme label.

The test system of test [3] is Cynomolgus monkeys. The experiment in a line: Delayed-type hypersensitivity against tetanus toxoid in immunized Cynomolgus monkeys. It is filed as in vivo, Cynomolgus monkey. Particulars: tetanus toxoid challenge at d90, compared to the KLH group, FIG. 8. How it is done:
Briefly, the TTx vaccine (Sanofi-Pasteur, solution of 0.5 ml comprising 40 IU of Tetanus Toxoid and 0.6 mg of aluminium hydroxide) was administered intramuscularly at d59 in the thigh. Then an intradermic challenge was performed at d90 in two injection sites in the back of the monkey.
Clinical features of the cutaneous reaction were evaluated once a day for each animal before the challenge and then 24 h, 48 h and 72 h after the challenge. Each injection site was monitored for the incidence, grade and duration of three parameters (erythema, thickening, nodules) and a cumulative clinical score of delayed-type hypersensitivity (DTH) comprising these three parameters was established for each group.

In the case of “Acetyl+C78ESSKEALAENNLNLPK94C-Y-BDB (Ac-CESSKEALAENNLNLPKCY-{BDB}; disulfide 1-18 (inferred); also: coupled to KLH via BDB) [hP2, peptide derived from hIL-6 region 78-94]”, the “neutralization of the biological activity of human IL-6” value in test [1] is “neutralize the biological activity of the human IL-6 in a dose-dependent manner”. The “peak of anti-hIL-6 antibody titer kinetics” value in test [2] (Cynomolgus monkeys immunized with hP2, in average) is roughly 60 days. For the same substance, in test [2] (four Cynomolgus monkeys, 150 μg cyclized hP2 coupled to KLH in ISA51 i.m., FIG. 7), the “development of antibodies against hIL-6 (ELISA)” value is given as “developed antibodies against hIL-6”. In addition, the “DTH response (cumulative clinical score)” value in test [3] is “marked attenuation of the DTH response”.
